Read-outs that look alike come from different tables or passages of the source.
Experiments:
Elk1 ETS domain [1] = target: T1, Elk1 ETS domain (Homo sapiens, UniProt P19419 1-93); assay: SPR
T1 sequence: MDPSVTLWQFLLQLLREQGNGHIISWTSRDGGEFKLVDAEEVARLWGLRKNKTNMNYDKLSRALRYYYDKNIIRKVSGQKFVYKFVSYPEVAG

Elk1 ETS domain [2] = target: T1, Elk1 ETS domain; assay: SPR; remark: listed apart in the source

B1: E74 (dsDNA)
DNA 1: CTGAATAACCGGAAGTAACTCATC
DNA 2: GATGAGTTACTTCCGGTTATTCAG
B1: binds (Elk1 ETS domain [1]).

B2: SD1 (scrambled nonspecific) (dsDNA)
DNA 1: CGCAAAAGCTGAGATGGCGTGCC
DNA 2: GGCACGCCATCTCAGCTTTTGCG
B2: no binding (Elk1 ETS domain [2]).
